# Assay results from patent KR20110049766A (dated 2011).
# Key:
# [1] = target: T1, MBP-IL-15 fusion protein (recombinant human IL-15 fused to maltose-binding protein) (human, UniProt P40933 49-162); assay: competitive inhibition ELISA; Fab-pIII supernatant pre-incubated with soluble antigen, then on coated antigen; Kd from IC50 (Klotz plot)
# T1 construct: Expressed in E. coli TG1 and purified on amylose resin; also called recombinant human IL-15 antigen
# [2] = target: T1, MBP-IL-15 fusion protein (recombinant …); assay: ELISA (Fig. 3a), Fab-pIII supernatant on coated antigen
# [3] = target: T2, recombinant human TNF-alpha (human, UniProt P01375 77-233); assay: competitive inhibition ELISA; Fab-pIII supernatant pre-incubated with soluble antigen, then on coated antigen; Kd from IC50 (Klotz plot)
# T2 construct: Bought protein; also called TNF-α; tumor necrosis factor-alpha
# T2 sequence (P01375 77-233 limits assumed): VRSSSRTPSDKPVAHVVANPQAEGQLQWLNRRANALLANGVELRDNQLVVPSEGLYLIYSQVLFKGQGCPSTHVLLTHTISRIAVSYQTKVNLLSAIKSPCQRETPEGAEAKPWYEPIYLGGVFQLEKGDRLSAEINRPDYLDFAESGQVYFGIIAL
# T1 sequence (P40933 49-162 limits assumed): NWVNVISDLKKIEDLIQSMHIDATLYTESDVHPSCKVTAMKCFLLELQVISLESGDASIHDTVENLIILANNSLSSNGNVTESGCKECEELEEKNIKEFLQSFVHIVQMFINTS
Binder,Kd [1] [nM],binding result [2],Kd [3] [nM]
"anti-IL-15 Fab clone 4H10 (Fab, V domains shown, Tested as a soluble Fab-pIII fusion molecule in E. coli culture supernatant (human Fd = VH+CH1 fused to phage pIII, human kappa light chain); Only the variable domains are tied to the clone; also called 3E3; 4H10 (3E3)) VH: EVQLVQSGGGLVEPGGSLRLSCAASGLSISDAWMHWVRQVPGKGLEWVGLITNKTGGGTIIYAAPVKGRFTISRDDSKNTLYLQMNSLKTEDTAMYYCVTTYDQGYWGQGTMVTVSS VL: ELVLTQSPSSLSASVGDRVTITCRASQSISRYLNWYQQKPGKAPKLLIYGASRLESGVPSRFSGSGSGTDFTLTISSLQPEDFATYYCQQSDSVPVTFGQGTRLEIKR",100,,
"anti-IL-15 Fab clone 8C5 (Fab, V domains shown, Tested as a soluble Fab-pIII fusion molecule in E. coli culture supernatant; only the variable domains are tied to the clone) VH: QVQLLQSGPGLVKPSQTLSLTCAISGDSVSSNSAAWNWIRQSPSRGLEWLGRTYYRSKWYNDYAVSVKSRITINPDTSKNQFSLQLNSVTPEDTAVYYCASHKDPGSSWYRQPFDYWGQGTMVTVS VL: ELVLTQSPSSLSASVGDRVTITCRASQSISRYLNWYQQKPGKAPKLLIYGASRLESGVPSRFSGSGSGTDFTLTISSLQPEDFATYYCQQSDSVPVTFGQGTRLEIKR",,binds,
"anti-TNF-α Fab clone TNFa#2 (Fab, V domains shown, Tested as a soluble Fab-pIII fusion molecule in E. coli culture supernatant; only the variable domains are tied to the clone; also called TNFα#2; #5) VH: EVQLVQSGGGVVQPGRSLRLSCAASGFSFGDYAMHWVRQAPGKGLEWVSGISWNSRIIGYADSVKGRFTISRDKAKNSLYLQMSSLRTEDTAVYYCARMGGDSSGYYSEPYYYFDYWGQGTLVTVSS VL: ELVLTQSPSSLSASVGDRVTITCRASQSISRYLNWYQQKPGKAPKLLIYGASRLESGVPSRFSGSGSGTDFTLTISSLQPEDFATYYCQQSDSVPVTFGQGTRLEIKR",,,200
"anti-IL-15 Fab clone 1H3 (Fab, V domains shown, Tested as a soluble Fab-pIII fusion molecule in E. coli culture supernatant; only the variable domains are tied to the clone) VH: EVQLVQSGGGLVEPGGSLRLSCAASGLSISDAWMHWVRQVPGKGLEWVGLITNKTGGGTIIYAAPVKGRFTISRDDSKNTLYLQMNSLKTEDTAMYYCVTTYDQGYWGQGTMVTVSS VL: ELVLTQSPGTLSLSPGERATLSCRASQSIFNYVAWYQQKPGQAPRLLIYDASNRATGIPARFSGSGSGTDFTLTISSLEPEDFAVYYCQQRSKWPPTWTFGQGTRVDIKR",700,,
"anti-TNF-α Fab clone TNFa#1 (Fab, V domains shown, Tested as a soluble Fab-pIII fusion molecule in E. coli culture supernatant; only the variable domains are tied to the clone; also called TNFα#1; #4) VH: QVQLLQSGGGLVKPGGSLRLSCVASGFTFSSYWMSWVRQAPGKGLEWIGEINHSGSTSYNPSLKSRVTISIDTSKNQFSLKLNSVATADTAVYYCARLGWTMVRGVKYYYGMDVWGQGTMVTVSS VL: ELVLTQSPSSLSASVGDRVTITCRASQSISRYLNWYQQKPGKAPKLLIYGASRLESGVPSRFSGSGSGTDFTLTISSLQPEDFATYYCQQSDSVPVTFGQGTRLEIKR",,,1000
"anti-IL-15 Fab clone 3C1 (Fab, V domains shown, Tested as a soluble Fab-pIII fusion molecule in E. coli culture supernatant; only the variable domains are tied to the clone; also called 4H7; 3C1 (4H7)) VH: EVQLVQSGGGLVEPGGSLRLSCAASGLSISDAWMHWVRQVPGKGLEWVGLITNKTGGGTIIYAAPVKGRFTISRDDSKNTLYLQMNSLKTEDTAMYYCVTTYDQGYWGQGTMVTVSS VL: DIVMTQSPSSLSASVGDRVPITCRASQGIRNDLGWYQQKPGKAPKLLIYAASSLQSGVPSRFSGSGSGTDFTLTISSLQPEDFATYYCLQDYNYPWTFGQGTQVEIKR",,binds,
